Changes are numbered by the printed parent chain.

Assay [1] addresses T1, S15-extra cellular domain (ECD) monomer (human, UniProt Q6ZMC9 20-263).
T1 construct: also called S15 monomer protein
T1 sequence: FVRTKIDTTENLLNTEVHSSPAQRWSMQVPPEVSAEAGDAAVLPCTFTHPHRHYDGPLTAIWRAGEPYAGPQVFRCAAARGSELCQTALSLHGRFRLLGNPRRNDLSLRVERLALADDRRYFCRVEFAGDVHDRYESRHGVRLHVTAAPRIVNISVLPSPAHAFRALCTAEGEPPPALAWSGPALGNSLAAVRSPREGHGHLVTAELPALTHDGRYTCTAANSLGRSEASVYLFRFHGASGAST
The assay can be described thus: BLI (Octet RED96), mAb on anti-human Fc sensors, S15-ECD monomer in solution, global fit. Here is the method:
Optimized KD experiments were performed on a ForteBio Octet RED96 instrument using anti-human Fc capture (AHC, 18-5060; ForteBio) sensors. Assay buffer was PBS containing 0.05% Tween-20 and regeneration buffer was 10 mM glycine (pH 1.5). First the antibodies were loaded at 1 μg/mL for 600 seconds. This was followed by a 60 second baseline step, a 300 second association step in S15-extra cellular domain (ECD) monomer, and finally a 1200 second dissociation step. The monomer concentrations ranged from 100 nM to 1.56 nM in a two-fold dilution series and a blank well was included. Data was processed using ForteBio's Data Analysis Software 7.0; a global fit was used, along with reference well subtraction. Reported values are the average of at least three independent octet runs.
On the technique in general: In BLI a coated tip is dipped into the sample, and binding shifts an interference pattern.

Assay [2] has as its target T2, hS15 (Homo sapiens, UniProt Q6ZMC9).
T2 construct: full length, cell surface; also called human Siglec-15; huS15
T2 sequence (membrane protein on cells, looked up): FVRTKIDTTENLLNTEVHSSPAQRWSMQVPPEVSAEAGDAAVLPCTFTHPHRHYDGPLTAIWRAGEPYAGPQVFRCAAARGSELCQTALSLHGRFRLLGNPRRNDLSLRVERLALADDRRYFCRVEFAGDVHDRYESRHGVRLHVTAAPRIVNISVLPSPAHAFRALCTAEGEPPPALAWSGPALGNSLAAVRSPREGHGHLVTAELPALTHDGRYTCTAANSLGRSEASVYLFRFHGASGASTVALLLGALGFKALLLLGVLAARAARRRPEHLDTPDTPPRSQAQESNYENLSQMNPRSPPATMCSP
Put plainly: flow cytometry, live 293T.hS15 cells, 1 µg mAb/1E05 cells/100 µL, PE secondary. Here is the method: Cells were sorted to establish human S15 and mouse S15 stable cell lines. […] 1E05 cells in 100 μL FACS buffer were aliquoted to separate tubes and 1 μg of purified mAb was added. Cells were incubated at 4 degrees C. for 30 minutes, then washed twice with excess FACS buffer. Cells were resuspended in 100 μL FACS buffer and 0.005 μg of anti-mouse IgG-PE secondary antibody was added to samples, incubated for 30 minutes and washed twice with excess FACS buffer. Cells were fixed in fixation buffer and subsequently analyzed by flow cytometry.
On the technique in general: A flow cytometer gives signals particle by particle.

B1: 83B (antibody, V domains shown)
VH: EVQLQQSGPELVKPGASVKMSCKASGYTFTDYNMHWVKQSHGKSLEWIGYINPNNGGTSYNQKFKDKATLTVNKSSSTAFMELRSLASEDSAVYYCARSDWEDCWGQGTTLTVSS
VL: EIQMTQSPSSMSASLGDRITITCQATQDIVKNLNWYQQKPGKPPSFLIYYATELAEGVPSRFSGSGSGSDYSLTISNLESEDFADYYCLQFYEFPYTFGGGTKLEIK
notes: Mouse anti-human Siglec-15 mAb; also called NC83
On to B1, for which, in assay [1], the dissociation constant (Kd) is 1.19 nM, the koff was determined as 0.000415 s⁻¹ and the kon turned out to be 353000 M⁻¹ s⁻¹.

B2: 10G9 (antibody, V domains shown)
VH: EVQLLETGGGLVQPGGSRGLSCEGSGFTFSDFWMSWVRQTPGKTLEWIGDINSDGSAVNYAPSIKDQFTIFRDNDKRTLHLQMINVRSEDTATYFCVRYDDYGYFDVWGTGTTVTVSS
VL: QAVVTQESALTTSPGETVTLTCRSSTGAVTTSNYANWVQEKPDHLFTGLIGGTNNRAPGVPARFSGSLIGDKAALTITGAQTEDEAIYFCALWYSNHWVFGGGTKLTVL
notes: Mouse anti-human Siglec-15 mAb
For the molecule B2, in assay [1], the dissociation constant (Kd) was determined as 0.55 nM, the koff is 0.000152 s⁻¹ and the kon came to 277000 M⁻¹ s⁻¹.

B3: 8H8 (antibody, V domains shown)
VH: B2 VH with D31G, V58I, Q67R, R77N, H80Y, I84N
VL: B2 VL with T26S, S32G, Y34F
notes: as for B2
As to B3, in assay [1], the Kd was 1.3 nM, the dissociation rate constant (koff) is 0.00027 s⁻¹ and the kon stood at 209000 M⁻¹ s⁻¹.

B4: 80A (antibody, V domains shown)
VH: QVQLKQSGAELVRPGASVKLSCRASGYTFTDFYINWVKQRPGQGLEWIARIYPGSDETYYNEKFKDKVTLTAEKSSSTAYMQLSSLTSEDSAVYFCALWFFDVWGTGTTVTVSS
VL: DIVMTQSPSSLTVTAGEKVTMSCKSNQSLLNSGDQKNYLTWYQQKPGQPPKLLIYWASTRESGVPDRFTGSGSGTDFTLTISSVQAEDLAIYYCQNDYSYPLTFGAGTKLELK
notes: Mouse anti-human Siglec-15 mAb; also called NC80
In assay [1], B4 yielded a Kd of 0.5 nM, a koff of 0.000175 s⁻¹ and an on-rate (kon) of 348000 M⁻¹ s⁻¹.

B5: 93B (antibody, V domains shown)
VH: QVQLKQSGAELVRPGASVKLSCKASGYTFTDYYINWVKQRPGQGLEWIARIYPGNGNTDYNEKFKDKATLTAEKSSTTAYIQLSSLTSEDSAVYFCCLWYFDVWGTGTTVTVSS
VL: B4 VL with N26S, D34N, S83N, A86P, I91V, Y100F, L102F, A106S, K109E, L112M
notes: Mouse anti-human Siglec-15 mAb; also called NC93
In assay [1], B5 yielded a Kd of 0.88 nM, a koff of 0.000162 s⁻¹ and an on-rate constant (kon) of 185000 M⁻¹ s⁻¹.

B6: 9A5 (antibody, V domains shown)
VH: HVQLQQSGAELARPGASVKLSCKASGYTFTSYGLIWVKQRTGQGLEWIGEIYPRSGNTYYNEKFKGKATLTADISSSTAYMELRSLTSEDSAVYFCASSSPHGDYWGQGTTLTVSS
VL: not shown
Regarding B6, the binding result in assay [2] is “binds”.

B7: 3H10 (antibody, V domains shown)
VH: EVQLQQSGAELVRPGASVKLSCTASGFNIKDYYMHWVKERPEQGLEWIGRIDPEDGDIEYDPKFQGKATMTADTSSNTAYLQFSSLTSEDTAVYYCVTDYDYDGGWFAYWGQGTLVTVSA
VL: QIILTQSPAIMSASPGEKVTMTCSASSSTSFMHWYQQKPGTSPKRWIFDTSKLASGVPGRFIGSGSGTSYSLTISTMEAEDAATYYCHQRSAYPWTFGGGTKLEIK
notes: as for B2
For the molecule B7, in assay [1], the affinity, expressed as Kd, was 0.6 nM; the koff amounted to 0.000178 s⁻¹; the kon amounted to 306000 M⁻¹ s⁻¹.

B8: 99B (antibody, V domains shown)
VH: QVQLQQSGAELARPGASVKLSCKASGYTFTSDGITWLKQRTGQGLEWIGQIHPRSGNTYYNEKFKGKATLTADKSSSTAYMELRSLTSEDSAVYFCAKTGTGDYWGQGTTLTVSS
VL: not shown
notes: Mouse anti-human Siglec-15 mAb; also called NC99
Take B8: in assay [1], binding was characterised by a dissociation constant (Kd) of 3.86 nM, the off-rate (koff) came to 0.000102 s⁻¹ and the kon worked out at 32000 M⁻¹ s⁻¹.

B9: 82B (antibody, V domains shown)
VH: B8 VH with L37V, E62G, K74R, A79T
VL: not shown
notes: Mouse anti-human Siglec-15 mAb; also called NC82
In assay [1], B9 returned a dissociation constant (Kd) of 4.84 nM, a dissociation rate constant (koff) of 0.0001 s⁻¹ and an association rate constant (kon) of 23000 M⁻¹ s⁻¹.

B10: 105A (antibody, V domains shown)
VH: EVQLQQSGAELVRPGASVKLSCTASGFNIKDDYMHWVKQRPEQGLEWIGCIDPENGDIEYASRFQGKATMTADTSSNTAYLQLTSLTSADTAVYYCTTYVGFGYWGQGTLVTVSA
VL: DVLMTQTPLSLPVSLGDQASISCRSSQSIVHSNGNTYLEWYLQKPGQSPKLLIYKVSNRFSGVPDRFSGSGSGTDFTLKISRVEAEDLGVYYCFQGSHVPLTFGAGTKLELK
notes: Mouse anti-human Siglec-15 mAb; also called NC105
For B10, in assay [1], the Kd worked out at 1.39 nM, the off-rate (koff) was 0.000102 s⁻¹ and the kon was found to be 72000 M⁻¹ s⁻¹.

B11: 1C12 (antibody, V domains shown)
VH: EVQLVESGGGLVKPGGSLKLSCAASGFSFSDYGMHWVRQAPEKGLEWVAYISSGSSILYYADIVKGRFTISRDNAKNTLFLQMTSLRSEDTAMYYCARDHYHGNGSDYWGQGTTLTVSS
VL: B10 VL with L101W, A105G, L111I
notes: as for B2
As for B11, in assay [1], the affinity, expressed as Kd, was 4.01 nM; the koff was 0.000423 s⁻¹; the on-rate constant (kon) was 105000 M⁻¹ s⁻¹.

B12: 1B2 (antibody, V domains shown)
VH: B11 VH with L11F, S28T, L58I, I63T
VL: B10 VL with L101W, A105G, L111I
notes: as for B2
Turning to B12, in assay [1], the Kd turned out to be 4.33 nM, the dissociation rate constant (koff) was 0.000609 s⁻¹ and the kon was found to be 143000 M⁻¹ s⁻¹.

B13: 77A (antibody, V domains shown)
VH: B10 VH with I58T, R63K, M70I, A79V, T84S, A89E
VL: B10 VL with T7S, S28N, Q43K, V90M
notes: Mouse anti-human Siglec-15 mAb; also called NC77
On to B13, for which, in assay [1], the dissociation constant (Kd) was determined as 1.93 nM, the koff worked out at 0.000143 s⁻¹ and the kon was 72000 M⁻¹ s⁻¹.

B14: 6A (antibody, V domains shown)
VH: B10 VH with I58T, R63K, G66D, M70I, A72T, T84S, A89E, G103A, A115T
VL: B10 VL with K79R
notes: Mouse anti-human Siglec-15 mAb; also called NC6
In assay [1], B14 returned a Kd of 2.94 nM, a koff of 0.000211 s⁻¹ and a kon of 73000 M⁻¹ s⁻¹.

B15: 1C3 (antibody, V domains shown)
VH: QVQLKQSGAELVKPGASVKISCKASGYIFTDYYVNWVKQRPGQGLEWIGKIGPGSVSIYYNEKFKGKATLTADKSSSTAYMQLSSLTSEDSAVYFCASYYYGFAYWGQGTLVTVSA
VL: DIVMTQAAPSVPVTPGESVSISCRSSKSLLHSNGNTYLYWFLQRPGQSPQLLIYRMSNLASGVPDRFGGSGSGTAFTLRISRVEAEDVGFYYCMQHLEYPYTFGGGTRLEIK
notes: as for B2
In assay [1], B15 showed a dissociation constant (Kd) of 0.58 nM, a koff of 0.000174 s⁻¹ and a kon of 317000 M⁻¹ s⁻¹.

B16: 6F8 (antibody, V domains shown)
VH: B15 VH with A9P, K13R, K23E, I28T, Q43R, G66D, S85G
VL: DIVMTQAAPSVPVTPGESVSISCRSSKSLLHSNGNTYLYWFLQRPGQSPQLLIYRMSNLASGVPDRFGGSGSGTAFTLRISRVEAEDVGVYYCMQHLEYPYTFGGGTKLEIKR
notes: as for B2
As for B16, in assay [1], the dissociation constant (Kd) worked out at 0.44 nM, the koff came to 0.000134 s⁻¹ and the on-rate (kon) stood at 304000 M⁻¹ s⁻¹.

B17: 8C8 (antibody, V domains shown)
VH: B15 VH with I28T, G54E, N61S, G66A
VL: B15 VL with F90V, R108K
notes: as for B2
In assay [1], B17 displayed a dissociation constant (Kd) of 0.89 nM, a koff of 0.00023 s⁻¹ and a kon of 292000 M⁻¹ s⁻¹.

B18: 104B (antibody, V domains shown)
VH: QVQLQQSGPELARPGASVKLSCKASGYTFTSYGISWVKQRTGQGLEWIGQIHPRSGNTYYNENFKGKATLTAAKSSSTAYLELRSLTSEDSAVYFCAREGGPDYWGQGTTLTVSS
VL: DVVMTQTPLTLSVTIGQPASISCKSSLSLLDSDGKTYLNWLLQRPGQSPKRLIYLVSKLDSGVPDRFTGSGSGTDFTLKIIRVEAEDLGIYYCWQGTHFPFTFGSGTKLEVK
notes: Mouse anti-human Siglec-15 mAb; also called NC104
In assay [1], B18 registered a Kd of 3.08 nM, a koff of 5.9e-05 s⁻¹ and an association rate constant (kon) of 23000 M⁻¹ s⁻¹.

B19: 92A (antibody, V domains shown)
VH: DVQLQESGPGLVKFSQSLSLTCSVTGYSITSGYYWNWIRQFPGNKLEWMGYIRHDGSNNYNPSLKNRISITRDTSKNQFFLKLNSVITEDTATYYCVREIYDGSSGYFDVWGTGTTVTVSS
VL: QIVLTQSPAIMSASLGEEITLICSASSSVSYMHWYQQKSGTSPKLLIYRTSNLASGVPSRFSGSGSGTFYSLTISSVEAEDAADYYCHQWSSWTFGGGTQLEIK
notes: Mouse anti-human Siglec-15 mAb; also called NC92
In assay [1], B19 returned an equilibrium dissociation constant (Kd) of 1.42 nM, a dissociation rate constant (koff) of 0.00014 s⁻¹ and a kon of 99000 M⁻¹ s⁻¹.

The term Kd denotes the equilibrium constant for the complex coming apart. One may read the koff as the rate constant with which the complex falls apart. A low value points to a long-lived complex. For orientation: kon means a measure of how fast the partners come together.

The values above are taken from patent US20190202912A1 (NEXTCURE, published 2019).
